As a reminder, the Kd is the free concentration of one partner at which half of the binding sites on the other are occupied at equilibrium, for simple one-to-one binding. A word on the IC50: it is the concentration at which inhibition is half-maximal. A low value points to greater potency.

“And” between values parts separate entries of the source, which are not always exact repeats. Equal values may be shown once. Square brackets hold non-standard residues; d marks the D form. Ends that are not written are not given here. Peptide text beside a SMILES is read from it. * marks the point of attachment. BODIPY(FL) = CC1=CC(C)=[N+]2C1=Cc1ccc(CCC(=O)*)n1[B-]2(F)F; pS = N[C@@H](COP(=O)(O)O)C(=O)O

The record followed here is PMC4239318, “Quantitative investigation of the affinity of human respiratory syncytial virus phosphoprotein C-terminus binding to nucleocapsid protein” (Virology Journal, 2014).

The target of experiment [1] is T1, RSV-N(13-391) (Human respiratory syncytial virus A, UniProt P03418). On the procedure: (§1) Samples of 10 μl containing peptides and proteins as indicated were prepared in buffer composed of 10 mM Tris-HCl (pH 7.5) +0.01% Brij-35 detergent (Pierce Surfact-Amps-35, Thermo Fisher Scientific, Rockford, IL) in low-volume 384-well black polystyrene assay plates (Thermo Fisher Scientific, Hudson, NH). After a 5 minute incubation, fluorescence anisotropy was measured with a Pherastar plate reader (BMG Labtech, Cary, NC) equipped with a filter module having a 485 nm excitation filter and 520 nm emission filters with polarizers. The focal height was 10.8 mm. Each measurement used 50 flashes. The parallel and perpendicular detector gains were set to 392 and 366 in order to produce an anisotropy of about 0.03 in the absence of binding.
The averages of triplicate fluorescence anisotropy measurements made at each RSV-N(13-391) concentration were fit to the equation y=yo+aN/Kd+N where y is the anisotropy, yo is the anisotropy of peptide alone, [N] is the RSV-N(13-391) concentration, and yo + a is the anisotropy of fully bound peptide.
(§2) All fluorescence anisotropy measurements were performed at ambient temperature, approximately 21°C.

For experiment [2], the target named is T1, RSV-N(13-391). The experiment is described as follows: biochemical. The note with it: from ΔG = RT ln Kd and IC50 = 2 × Kd; 10 mM Tris-HCl pH 7.5 at 21°C; approximate. The procedure:
as §1
The averages of triplicate anisotropy measurements made at each competitor concentration were used to calculate % inhibition using the equation %inhibition=1001–r–rmin/rmax–rmin where r is the anisotropy at the competitor concentration, rmin is the anisotropy with no RSV-N(13-391), and rmax is the anisotropy with no competititor.
as §2
For the BP5 competition assay, the P protein storage buffer was replaced by repeated concentration using centrifugal ultrafiltration with a Millipore Ultrafree 0.5 unit with Biomax-10 membrane (EMD Millipore, Billerica, MA) and dilution with 10 mM Tris-HCl (pH 7.5). The protein concentration was determined by the method of Bradford using bovine serum albumin as the standard. Serial dilutions of P were prepared in 10 mM Tris-HCl (pH 7.5) +0.01% Brij-35.

The target of the next experiment is T2, 15N-labeled N(31-252) (Human respiratory syncytial virus A, UniProt P03418).
T2 construct: His6 (N); TEV protease cleavage recognition site (N); made in house; host or cells: E. coli BL21(DE3)pLysS, M9 minimal medium with [15N]; NH4Cl
The experiment is described as follows: 2-D NMR [15N,1H] TROSY titration, chemical shift perturbation. The note with it: 0.15 mM 15N N(31-252); 25 mM HEPES pH 7.5, 100 mM NaCl, 1 mM DTT, 1 mM EDTA; 298 K; global best fit ± standard error of fit; read-out: Kd measured by NMR. The experiment is classed as binding, human respiratory syncytial virus (strain A2). The procedure:
NMR spectra were acquired at 298 K with a 600 MHz NMR instrument (Bruker, Billerica MA) equipped with an AVANCE III console and a triple-resonance cryogenic probe. Samples were at pH 7.5 in a 25 mM HEPES buffer containing 100 mM NaCl, 1 mM dithiothreitol, and 1 mM EDTA. The concentration of ^15N labeled RSV N(31-252) was 0.15 mM. Two-dimensional [^15N, ^1H] transverse relaxation optimized spectroscopy (TROSY) experiments were recorded with increasing ligand concentration. Evolution times were approximately 53 ms in the ^1H dimension and 29 ms in the ^15N dimension. The total acquisition time was 28 min per experiment.
To estimate the dissociation constant (Kd) from NMR experiments, ^15N-RSV N(31-252) was titrated with a range of ligand concentrations. The weighted average of chemical shift changes (Δδ(N, H)obs) is calculated using the following equation: ΔδN,Hobs=ΔδHN^2+ΔδΝ/5^2 where ΔδHN and ΔδN are the chemical shift changes of amide protons and nitrogens, respectively. Then Δδ(N, H)obs data were fitted by non-linear regression globally against the total concentration of the subtrate (LT) with the equation: ΔδN,Hobs=ΔδN,HmaxKd+LT+ET‐Kd+LT+ET^2−4LTET/2ET where Δδ(N, H)max is the maximum chemical shift difference, ET is the total concentration of N(31-352) in the solution, and LT is the total concentration of ligand.

Experiment [3] has as its target T3, RSV N(13-391), N-terminally truncated nucleocapsid protein (human respiratory syncytial virus, …, UniProt P03418 13-391).
T3 construct: source: E. coli BL21(DE3)pLysS, purified (Ni2+ chelating, Q-Sepharose, Superdex 200)
T3 sequence: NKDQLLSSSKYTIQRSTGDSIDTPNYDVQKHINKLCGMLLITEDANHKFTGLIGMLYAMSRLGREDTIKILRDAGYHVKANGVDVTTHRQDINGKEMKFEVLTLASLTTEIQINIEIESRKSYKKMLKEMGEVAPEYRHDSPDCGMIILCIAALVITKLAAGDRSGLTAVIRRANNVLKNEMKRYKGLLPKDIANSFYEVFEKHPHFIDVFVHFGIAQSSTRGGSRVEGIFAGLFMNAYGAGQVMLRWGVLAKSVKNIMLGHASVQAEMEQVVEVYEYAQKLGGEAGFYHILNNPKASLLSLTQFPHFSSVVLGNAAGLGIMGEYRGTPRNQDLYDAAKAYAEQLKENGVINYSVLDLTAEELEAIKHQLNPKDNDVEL
The experiment is described as follows: fluorescence polarisation; fluorescence anisotropy, direct binding; 100 nM BP1 or 25 nM BP5, N(13-391) varied; 10 mM Tris-HCl pH 7.5, 0.01% Brij-35; about 21 °C. The settings on record: both partners purified.

Experiment [4] addresses T3, RSV N(13-391), N-terminally truncated …. Description: fluorescence polarisation. The note with it: both partners purified.
The target is the same in experiment [5]. The experiment is described as follows: fluorescence polarisation; fluorescence anisotropy, competition with 25 nM BP5 and 75 nM N(13-391), competitor varied; 10 mM Tris-HCl pH 7.5, 0.01% Brij-35; about 21 °C. The note with it: both partners purified.
For experiment [6] the target is unchanged. Described as above. The settings on record: both partners purified. The source holds these as a separate data set.
Experiment [7] has the same target. Description: SPR; Biacore T200; His10-P immobilised on NTA chip (nickel capture, amine coupling); 100 nM N(13-391) mixed with peptide series; 20 mM HEPES-NaOH pH 7.5, 100 mM NaCl, 1 mM EDTA, 1 mM TCEP, 0.005% Tween 20, 1% DMSO. The note with it: both partners purified. (In general: Surface plasmon resonance follows binding to a sensor surface in real time, without labels.)

The target in experiment [8] is T4, RSV N(31-252), nucleocapsid construct consisting of residues 31-252 (human respiratory syncytial virus, …, UniProt P03418 31-252).
T4 construct: source: E. coli BL21(DE3)pLysS, purified (Ni2+ chelating, Superdex 200)
T4 sequence: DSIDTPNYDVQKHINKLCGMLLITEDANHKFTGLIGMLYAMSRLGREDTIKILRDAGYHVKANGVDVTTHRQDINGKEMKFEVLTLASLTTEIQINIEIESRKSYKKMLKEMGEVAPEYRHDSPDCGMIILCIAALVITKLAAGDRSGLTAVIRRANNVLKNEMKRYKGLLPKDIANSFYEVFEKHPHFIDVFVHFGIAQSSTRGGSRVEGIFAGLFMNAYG
Description: NMR titration; 2-D [15N,1H] TROSY of 0.15 mM 15N-labeled N(31-252) with increasing ligand; 25 mM HEPES pH 7.5, 100 mM NaCl, 1 mM DTT, 1 mM EDTA; 298 K. The note with it: both partners purified.

On to `Cc1cc(C)n2c1C=C1C=CC(CCC(=O)N[C@@H](CC(=O)O)C(=O)N[C@@H](COP(=O)(O)O)C(=O)N[C@@H](CC(=O)O)C(=O)N[C@@H](CC(N)=O)C(=O)N[C@@H](CC(=O)O)C(=O)N[C@@H](CC(C)C)C(=O)N[C@@H](COP(=O)(O)O)C(=O)N[C@@H](CC(C)C)C(=O)N[C@@H](CCC(=O)O)C(=O)N[C@@H](CC(=O)O)C(=O)N[C@@H](Cc3ccccc3)C(=O)O)=[N+]1[B-]2(F)F` [BP5] ({BODIPY(FL)}-D[pS]DNDL[pS]LEDF-OH), for which the “Effect of KCl concentration (ionic strength) on affinity for N(13-391)” value at RSV-N(13-391) [1] (Kds measured with N(13-391) 1.95 to 2000 nM in triplicate, Figure 1B) is listed as “diminished as the ionic strength increased”. Also, the “affinity relative to unphosphorylated peptide BP1” value on RSV-N(13-391) [1] (ratio of Kds for N(13-391)) was “about 10 times”.
Turning to `CC(C)C[C@H](NC(=O)[C@H](COP(=O)(O)O)NC(=O)[C@H](CC(C)C)NC(=O)[C@H](CC(=O)O)NC(=O)[C@H](CC(N)=O)NC(=O)[C@H](CC(=O)O)NC(=O)[C@H](COP(=O)(O)O)NC(=O)[C@@H](N)CC(=O)O)C(=O)N[C@@H](CCC(=O)O)C(=O)N[C@@H](CC(=O)O)C(=O)N[C@@H](C)C(=O)O` [D(pS)DNDL(pS)LEDA], at RSV-N(13-391) [2], the “ΔG of binding to RNA-free N(13-391)” value was -6.0 kcal/mol.
On the same count and under the same terms, in the case of `CC(C)C[C@H](NC(=O)[C@H](COP(=O)(O)O)NC(=O)[C@H](CC(C)C)NC(=O)[C@H](CC(=O)O)NC(=O)[C@H](CC(N)=O)NC(=O)[C@H](CC(=O)O)NC(=O)[C@H](COP(=O)(O)O)NC(=O)[C@@H](N)CC(=O)O)C(=O)N[C@@H](CCC(=O)O)C(=O)N[C@@H](CC(=O)O)C(=O)N[C@@H](Cc1ccccc1)C(=O)O` [D(pS)DNDL(pS)LEDF] (H-D[pS]DNDL[pS]LEDF-OH) it was -8.7 kcal/mol.
With `N[C@@H](CC(=O)O)C(=O)N[C@@H](Cc1ccccc1)C(=O)O` [DF, Asp-Phe, reference compound] (H-Asp-Phe-OH), the equilibrium dissociation constant (Kd) on 15N-labeled N(31-252) was found to be 2600 µM.
On to DSDNDLSLEDF, for which the “ΔG of binding to RNA-free N(13-391)” value at RSV-N(13-391) [2] is -6.9 kcal/mol.

B1: BP1, BODIPY-FL labeled peptide 1 (DSDNDLSLEDF) (peptide)
peptide: {BODIPY(FL)}-DSDNDLSLEDF
notes: C-terminal 11 residues (231-241) of RSV phosphoprotein P; C-terminus uncapped; source: synthetic peptide (Biopeptide Co.), labelled with BODIPY FL SSE, purified on Sephadex LH-20
Take B1: in [3], the equilibrium dissociation constant (Kd) is 0.76 µM.

B2: DSDNDLSLEDA (unphosphorylated P C-terminal peptide, C-terminal Phe changed to Ala) (peptide)
peptide: DSDNDLSLEDA
notes: also called Ala-modified peptide; source: synthetic peptide (Biopeptide Co.)
With B2, the half-maximal inhibitory concentration (IC50) in [4] was above 200 µM.

B3: D(pS)DNDL(pS)LEDA (doubly phosphorylated P C-terminal peptide, C-terminal Phe changed to Ala) (peptide)
peptide: D[pS]DNDL[pS]LEDA
notes: source: synthetic peptide (Biopeptide Co.)
On to B3, for which, in [4], the IC50 came to 69 µM.

B4: peptide 1, DSDNDLSLEDF (unphosphorylated P C-terminal peptide) (peptide)
peptide: DSDNDLSLEDF
notes: residues 231-241 of RSV phosphoprotein P; N- and C-termini uncapped; source: synthetic peptide (Biopeptide Co.)
B4 displayed a Kd in experiment [5] of around 7.6 µM. Further, the 50% inhibitory concentration (IC50) in experiment [6] turned out to be 15.3 µM; in experiment [7], 230 µM.

B5: BP5, BODIPY-FL labeled peptide 5 (D(pS)DNDL(pS)LEDF) (peptide)
peptide: {BODIPY(FL)}-D[pS]DNDL[pS]LEDF
notes: as for B1
Take B5: the equilibrium dissociation constant (Kd) in experiment [3] was 0.078 µM.

B6: DSDNDL(pS)LEDF (P C-terminal peptide phosphorylated on the C-terminal serine) (peptide)
peptide: DSDNDL[pS]LEDF
notes: as for B4
In the case of B6, the concentration for half-maximal inhibition (IC50) worked out at 1.51 µM in [6] and 31 µM in experiment [7].

B7: D(pS)DNDLSLEDF (P C-terminal peptide phosphorylated on the N-terminal serine) (peptide)
peptide: D[pS]DNDLSLEDF
notes: as for B4
Consider B7, for which the IC50 in experiment [6] came out at 2.17 µM; in experiment [7], 44 µM.

B8: peptide 5, D(pS)DNDL(pS)LEDF (doubly phosphorylated P C-terminal peptide) (peptide)
peptide: D[pS]DNDL[pS]LEDF
notes: as for B4
B8: the Kd in experiment [8] is 74 µM; in experiment [5], around 0.34 µM. Also, the half-maximal inhibitory concentration (IC50) was 0.61 µM and 0.74 µM in [6]; 13.6 µM in experiment [7].
